In patent US11702465 (TRIAD NATIONAL SECURITY, dated 2023):

Target: T1, Yersinia pestis F1 antigen, cell-expressed (on Y. pestis cells) (Yersinia pestis, UniProt P26948 22-170)
T1 construct: whole, on cells; also called cell-expressed F1 antigen; F1-positive Y. pestis
Assay: affinity for cell-expressed F1 antigen (method not given)

T1 sequence (P26948 22-170): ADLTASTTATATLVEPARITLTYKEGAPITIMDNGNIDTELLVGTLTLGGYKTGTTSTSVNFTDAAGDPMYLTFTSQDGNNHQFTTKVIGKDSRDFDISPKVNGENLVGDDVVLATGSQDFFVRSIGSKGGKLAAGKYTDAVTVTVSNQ

B1: AM IgG H (antibody, V domains shown)
VH: QVQLQQWGAGLLKPSETLSLTCAVYGGSFSGYYWSWIRQPPGKGLEWIGEINRSGNTNYNPSLKSRVTISVDTSKNQFSLQLNSVTPEDTAVYYCARTRGYFDLWGRGTLVTVSS
VL: QPVLTQSPSVSVSPGQTASITCSGDKLGGRYASWYQQKPGQSPVLVIYQDTKRPSGIPERFSGSNSGNTATLTISGTQAMDEADYYCQSWDSSAAVFGTGTKLTVLG
notes: also called AM^a IgG H
- Kd: 30 pM

B2: AM IgG B (antibody, V domains shown)
VH: QVQLVESGGGLVKPGGSLRLSCAASGFTFSDYYMSWIRQAPGKGLEWVSYISGSGSIIYYADSVKGRFTISRDNAKNSLYLQMNSLRAEDTAVYYCAKEIRKHDAFDIWGQGTMVTVSS
VL: DIRMTQSPSSLSASVGDRVTITCRASRSISGYLNWYQQKPGKAPKLLIYATSSLQSGVPSRFSGSGSGTDFTLTISSLQPEDFATYYCQQSYSTPSSFGQGTKVDIKR
notes: also called AM^a IgG B
- Kd: 90 pM
